{"source": "paper PMC6388921", "about": "“An alkaline active feruloyl-CoA synthetase from soil metagenome as a potential key enzyme for lignin valorization strategies” (PLoS ONE, 2019)", "proteins": {"B1": {"name": "feruloyl-CoA synthetase FCS1 (enzyme, UniProt A0A2P1BT06 1-707, looked up)", "chain": "MGERRFSNQQIDRLLRPKSVAVIGASDRKGALGATLLNNLVQYEFSGDIYPVNPKRDELLGLKVYHEVAELPEGIDCAVLAIPRPFVIDTVRQLAQRGCGAVVIYSAGFSEAGEEGMKDQLELAAIAAEYGMVIEGPNCLGCTNYVERVPLTFVETNMQTPPKGTRAVGIASQSGALAAVLATALHPRGLYVSSSVSTGNEAASGVEDYVEWLVDDEDTHVIAMYVESLRRPKAFIAAARRAHAAGKPIVMLHPGKSNKAQESAATHTGAMAGDYALMKTKLAREGVIFADTLEELADITEIALRCRALPGANMAVLGESGALRGLAFDIAEDIGLDLIHLDDDNSPALRAILPDFVPVSNPTDITALGLSEPEIYTKVLTALLEDERIGSVVASIIQSDPITSGIKFPHIIKVLDGGTFAKPLVFAGVDEGATVPKEYIDGLRKVGIPWFPSTERAYRAIARLADLSKRDLADNSGDPIVVPGLDAVSGVVPEYKAKELLRPLGIAFPPSQFAANAEAAAAAARAIGYPVVMKAQAAALGHKSDAGGVILNLKTDDEVRDAFARIYGNVEAYDRSIALDGVLIEKMGKMGTEMIVGAKNDPQWGPVVLAGFGGVTAEILKDVKLFTPEMDAAAVQRGLLELKQAPILKGYRGAPALDVAALAELIVQIGRVMAGNPSIREIDLNPVIIHPAGEGVAALDALMLVER", "notes": "feruloyl-CoA synthetase FCS1 from the metagenome of a lignin-degrading microbial consortium from sugarcane plantation soil; GenBank MG214406; codon-optimised, synthesised gene; predicted molecular mass 74.9 kDa; No tag cleavage is described"}}, "target": "the molecule itself", "assay": "dynamic light scattering; FCS1 at 1 mg/mL in 20 mM Tris-HCl pH 7; hydrodynamic radius converted to mass assuming a spherical molecule", "data": [{"protein": "B1", "values": [{"measurement": "stoichiometry N", "value": 2}]}]}
